{"source": "paper doi:10.1101/2022.04.02.486822", "about": "(bioRxiv, 2022)", "proteins": {"B1": {"name": "E. coli glyoxylate reductase/hydroxypyruvate reductase A (EcGhrA), wild type, His6-tagged (enzyme, UniProt P75913 1-312, looked up)", "chain": "MDIIFYHPTFDTQWWIEALRKAIPQARVRAWKSGDNDSADYALVWHPPVEMLAGRDLKAVFALGAGVDSILSKLQAHPEMLNPSVPLFRLEDTGMGEQMQEYAVSQVLHWFRRFDDYRIQQNSSHWQPLPEYHREDFTIGILGAGVLGSKVAQSLQTWRFPLRCWSRTRKSWPGVQSFAGREELSAFLSQCRVLINLLPNTPETVGIINQQLLEKLPDGAYLLNLARGVHVVEDDLLAALDSGKVKGAMLDVFNREPLPPESPLWQHPRVTITPHVAAITRPAEAVEYISRTIAQLEKGERVCGQVDRARGY"}}, "molecular_target": "the molecule itself", "assay": "crystal structure"}
{"protein": "B1", "values": [{"measurement": "binding result", "value": "binds"}]}
